# T1: substrate peptide NH2-KPTTVKPPSDFEEWTINVC-COOH
# T1 chain: KPTTVKPPSDFEEWTINVC
# Target: T1, substrate peptide …
row,Protein,"dehydration of the peptide, LC-ESI mass spectrometry"
1,NelfMvdDGS10 (N-terminal MvdE leader - 10-residue linker - MvdD enzyme-leader fusion) (protein) MSKNVKVSAPKAVPFFARFLAEQAVEANNSNSAPSASGSGSGSGSTSGSGSGSAMTVLIFTFSNDNESIPLVVKAIEAKGEKAFRFDTDRFPTEVKLDIYSGDFEGGIVTDGEHKLDLSEVSSVWYRRMRYGAKLPDSMDQQFREASLKECRLTVRGLIASLPGFHFDPMINVDRANNKQLQLQIARQLGLLTPRTLTSNNPEAVKQFAQDCKEQGIVTKMLSQFAIYGENKEENVVFTSPVTDDDLDNLEGLSFCPMTFQENVPKALELRTIIVGKQVFTAAINSQQLDGATYDWRKEGRALHEKWQAYNLPEDIEKKLLQLTAYFGLNYGAIDIIVTPDGRHVFLEINPVGEFFWLELFAPYFPISQAIAEILLTPTNQKPF,one portion of the used peptide P2 was found showing triple dehydration with a m/z value of 1069.022
2,Celf5ProcM (ProcM - 5-residue linker - C-terminal ProcA4.3 leader enzyme-leader fusion) (protein) MSEEQLKAFIAKVQADTSLQEQLKAEGADVVAIAKAAGFTITTEDLNSHRQNLTDDELEGVAGGSASGSGSGSAMESPSSWKTSWLAAIAPDEPHKFDRRLEWDELSEENFFAALNSEPASLEEDDPCFEEALQDALEALKAAWDLPLLPVDNNLNRPFVDVWWPIRCHSAESLRQSFVSDSAGLADEIFDQLADSLLDRLCALGDQVLWEAFNKERTPGTMLLAHLGAAGDGSGPPVREHYERFIQSHRRNGLAPLLKEFPVLGRLIGTVLSLWFQGSVEMLQRICADRTVLQQCFAIPCGHHLKTVKQGLSDPHRGGRAVAVLEFADPNSTANSSMHVVYKPKDMAVDAAYQATLADLNTHSDLSPLRTLAIHNGNGYGYMEHVVHHLCANDKELTNFYFNAGRLTALLHLLGCTDCHHENLIACGDQLLLIDTETLLEADLPDHISDASSTTAQPKPSSLQKQFQRSVLRSGLLPQWMFLGESKLAIDISALGMSPPNKPERIALGWLGFNSDGMMPGRVSQPVEIPTSLPVGIGEVNPFDRFLEDFCDGFSMQSEALIKLRNRWLDVNGVLAHFAGLPRRIVLRATRVYFTIQRQQLEPTALRSPLAQALKLEQLTRSFLLAESKPLHWPIFAAEVKQMQHLDIPFFTHLIDADALQLGGLEQELPGFIQTSGLAAAYERLRNLDTDEIAFQLRLIRGAVEARELHTTPESSPTLPPPATPEALMSSSAETSLEAAKRIAHRLLELAIRDSQGQVEWLGMDLGADGESFSFGPVGLSLYGGSIGIAHLLQRLQAQQVSLMDADAIQTAILQPLVGLVDQPSDDGRRRWWRDQPLGLSGCGGTLLALTLQGEQAMANSLLAAALPRFIEADQQLDLIGGCAGLIGSLVQLGTESALQLALRAGDHLIAQQNEEGAWSSSSSQPGLLGFSHGTAGYAAALAHLHAFSADERYRTAAAAALAYERARFNKDAGNWPDYRSIGRDSDSDEPSFMASWCHGAPGIALGRACLWGTALWDEECTKEIGIGLQTTAAVSSVSTDHLCCGSLGLMVLLEMLSAGPWPIDNQLRSHCQDVAFQYRLQALQRCSAEPIKLRCFGTKEGLLVLPGFFTGLSGMGLALLEDDPSRAVVSQLISAGLWPTESASGSGSGSAMSEEQLKAFIAKVQADTSLQEQLKAEGADVVAIAKAAGFTITTEDLNSHRQNLTDDELEGVAGG,one portion of the used peptide P2 was found showing triple dehydration with a m/z value of 1069.022

# From patent publication US20170240883A1, “CYCLIC PEPTIDES EXPRESSED BY A GENETIC PACKAGE” (Miti Biosystems GmbH, priority 2014, published 2017)
